Results published in publication PMC6358683 (Proceedings of the National Academy of Sciences of the …, 2019).

Tests used:
Assay in all cases: ELISA
HA of A/Japan/305+/1957 = HA of A/Japan/305+/1957 (Influenza A virus A/Japan/305/1957 …, UniProt P03451)
HA of A/Hong Kong/1/1968 = HA of A/Hong Kong/1/1968 (influenza A virus A/Hong Kong/1/1968 …, UniProt Q91MA7)
[1] = biological target: HA of A/Solomon Islands/03/2006 (Influenza A virus A/Solomon …, UniProt A7Y8I1, strain)
[2] = biological target: HA of A/Thailand/CU44/2006 (Influenza A virus A/Thailand/CU44/2006 …, UniProt A7LI25, strain)

Measured: binding result

B1: C05 WT (antibody, V domains shown)
VH: QVQLQESGGGLVQPGESLRLSCVGSGSSFGESTLSYYAVSWVRQAPGKGLEWLSIINAGGGDIDYADSVEGRFTISRDNSKETLYLQMTNLRVEDTGVYYCAKHMSMQQVVSAGWERADLVGDAFDVWGQGTMVTVSS
VL: DIQLTQSPSSLSASVGDRVTLTCQASQDIRKFLNWYQQKPGKGPKLLIYDASNLQRGVPSRFSGGGSGTDFTLIISSLQPEDVGTYYCQQYDGLPFTFGGGTKVVIK
binds: HA of A/Japan/305+/1957 | HA of A/Hong Kong/1/1968 | [1] | [2]
